Assay [1] addresses human glucagon receptor (glucagon-R) (human, UniProt P47871). Briefly: cell-based or functional assay.
The target of assay [2] is human glucagon-like peptide 1 receptor (GLP-1R) (human, UniProt P43220). The assay can be described thus: cell-based or functional assay.

Starred links: 1 amine or outer side, 2 acyl side, 3 side chain; linkers in the order of their positions; H or OH if unused. Non-standard residues stand in square brackets, D forms with d. Groups on a side chain read outwards from the residue. *: point of attachment. γGlu = O=C(O)[C@H](CCC(=O)[*:2])N[*:1]; Palmitoyl = CCCCCCCCCCCCCCCC(=O)*; hPhe = N[C@@H](CCc1ccccc1)C(=O)O; Aib = CC(C)(N)C(=O)O

B1: Compound 13 (peptide)
peptide: H-H[Aib]LGTFTSDYSKYLDSK([γGlu-Palmitoyl])AAHDFVEWLLSA-NH2
SMILES: CCCCCCCCCCCCCCCC(=O)N[C@@H](CCC(=O)NCCCC[C@H](NC(=O)[C@H](CO)NC(=O)[C@H](CC(=O)O)NC(=O)[C@H](CC(C)C)NC(=O)[C@H](Cc1ccc(O)cc1)NC(=O)[C@H](CCCCN)NC(=O)[C@H](CO)NC(=O)[C@H](Cc1ccc(O)cc1)NC(=O)[C@H](CC(=O)O)NC(=O)[C@H](CO)NC(=O)[C@@H](NC(=O)[C@H](Cc1ccccc1)NC(=O)[C@@H](NC(=O)CNC(=O)[C@H](CC(C)C)NC(=O)C(C)(C)NC(=O)[C@@H](N)Cc1c[nH]cn1)[C@@H](C)O)[C@@H](C)O)C(=O)N[C@@H](C)C(=O)N[C@@H](C)C(=O)N[C@@H](Cc1c[nH]cn1)C(=O)N[C@@H](CC(=O)O)C(=O)N[C@@H](Cc1ccccc1)C(=O)N[C@H](C(=O)N[C@@H](CCC(=O)O)C(=O)N[C@@H](Cc1c[nH]c2ccccc12)C(=O)N[C@@H](CC(C)C)C(=O)N[C@@H](CC(C)C)C(=O)N[C@@H](CO)C(=O)N[C@@H](C)C(N)=O)C(C)C)C(=O)O
B1: the “EC50 (nM) GluR, cAMP formation” value in assay [1] came out at 11 nM. Moreover, the “EC50 (nM) GLP-1R, cAMP formation” value in assay [2] is 0.28 nM.

B2: Compound 18 (peptide)
peptide: H-H[Aib]SGTFTSDYSKYLDSK([γGlu-Palmitoyl])AAHDFVEWLLSA-NH2
SMILES: CCCCCCCCCCCCCCCC(=O)N[C@@H](CCC(=O)NCCCC[C@H](NC(=O)[C@H](CO)NC(=O)[C@H](CC(=O)O)NC(=O)[C@H](CC(C)C)NC(=O)[C@H](Cc1ccc(O)cc1)NC(=O)[C@H](CCCCN)NC(=O)[C@H](CO)NC(=O)[C@H](Cc1ccc(O)cc1)NC(=O)[C@H](CC(=O)O)NC(=O)[C@H](CO)NC(=O)[C@@H](NC(=O)[C@H](Cc1ccccc1)NC(=O)[C@@H](NC(=O)CNC(=O)[C@H](CO)NC(=O)C(C)(C)NC(=O)[C@@H](N)Cc1c[nH]cn1)[C@@H](C)O)[C@@H](C)O)C(=O)N[C@@H](C)C(=O)N[C@@H](C)C(=O)N[C@@H](Cc1c[nH]cn1)C(=O)N[C@@H](CC(=O)O)C(=O)N[C@@H](Cc1ccccc1)C(=O)N[C@H](C(=O)N[C@@H](CCC(=O)O)C(=O)N[C@@H](Cc1c[nH]c2ccccc12)C(=O)N[C@@H](CC(C)C)C(=O)N[C@@H](CC(C)C)C(=O)N[C@@H](CO)C(=O)N[C@@H](C)C(N)=O)C(C)C)C(=O)O
As to B2, in assay [1], the “EC50 (nM) GluR, cAMP formation” value stood at 8 nM. Also, the “EC50 (nM) GLP-1R, cAMP formation” value in assay [2] was found to be 0.09 nM.

B3: Compound 20 (peptide)
peptide: H-H[Aib]GGTFTSDYSKYLDSK([γGlu-Palmitoyl])AAHDFVEWLLSA-NH2
SMILES: CCCCCCCCCCCCCCCC(=O)N[C@@H](CCC(=O)NCCCC[C@H](NC(=O)[C@H](CO)NC(=O)[C@H](CC(=O)O)NC(=O)[C@H](CC(C)C)NC(=O)[C@H](Cc1ccc(O)cc1)NC(=O)[C@H](CCCCN)NC(=O)[C@H](CO)NC(=O)[C@H](Cc1ccc(O)cc1)NC(=O)[C@H](CC(=O)O)NC(=O)[C@H](CO)NC(=O)[C@@H](NC(=O)[C@H](Cc1ccccc1)NC(=O)[C@@H](NC(=O)CNC(=O)CNC(=O)C(C)(C)NC(=O)[C@@H](N)Cc1c[nH]cn1)[C@@H](C)O)[C@@H](C)O)C(=O)N[C@@H](C)C(=O)N[C@@H](C)C(=O)N[C@@H](Cc1c[nH]cn1)C(=O)N[C@@H](CC(=O)O)C(=O)N[C@@H](Cc1ccccc1)C(=O)N[C@H](C(=O)N[C@@H](CCC(=O)O)C(=O)N[C@@H](Cc1c[nH]c2ccccc12)C(=O)N[C@@H](CC(C)C)C(=O)N[C@@H](CC(C)C)C(=O)N[C@@H](CO)C(=O)N[C@@H](C)C(N)=O)C(C)C)C(=O)O
Consider B3, for which, in assay [1], the “EC50 (nM) GluR, cAMP formation” value turned out to be 26 nM. For the same molecule, in assay [2], the “EC50 (nM) GLP-1R, cAMP formation” value was 0.21 nM and the “EC50 (nM) GLP-1R, cAMP formation, earlier determination” value stood at 0.89 nM.

B4: Compound 16 (peptide)
peptide: H-H[Aib]VGTFTSDYSKYLDSK([γGlu-Palmitoyl])AAHDFVEWLLSA-NH2
SMILES: CCCCCCCCCCCCCCCC(=O)N[C@@H](CCC(=O)NCCCC[C@H](NC(=O)[C@H](CO)NC(=O)[C@H](CC(=O)O)NC(=O)[C@H](CC(C)C)NC(=O)[C@H](Cc1ccc(O)cc1)NC(=O)[C@H](CCCCN)NC(=O)[C@H](CO)NC(=O)[C@H](Cc1ccc(O)cc1)NC(=O)[C@H](CC(=O)O)NC(=O)[C@H](CO)NC(=O)[C@@H](NC(=O)[C@H](Cc1ccccc1)NC(=O)[C@@H](NC(=O)CNC(=O)[C@@H](NC(=O)C(C)(C)NC(=O)[C@@H](N)Cc1c[nH]cn1)C(C)C)[C@@H](C)O)[C@@H](C)O)C(=O)N[C@@H](C)C(=O)N[C@@H](C)C(=O)N[C@@H](Cc1c[nH]cn1)C(=O)N[C@@H](CC(=O)O)C(=O)N[C@@H](Cc1ccccc1)C(=O)N[C@H](C(=O)N[C@@H](CCC(=O)O)C(=O)N[C@@H](Cc1c[nH]c2ccccc12)C(=O)N[C@@H](CC(C)C)C(=O)N[C@@H](CC(C)C)C(=O)N[C@@H](CO)C(=O)N[C@@H](C)C(N)=O)C(C)C)C(=O)O
For B4, the “EC50 (nM) GluR, cAMP formation” value in assay [1] is 3 nM. The “EC50 (nM) GLP-1R, cAMP formation” value in assay [2] amounted to 0.13 nM.

B5: Compound 14 (peptide)
peptide: H-H[Aib][hPhe]GTFTSDYSKYLDSK([γGlu-Palmitoyl])AAHDFVEWLLSA-NH2
SMILES: CCCCCCCCCCCCCCCC(=O)N[C@@H](CCC(=O)NCCCC[C@H](NC(=O)[C@H](CO)NC(=O)[C@H](CC(=O)O)NC(=O)[C@H](CC(C)C)NC(=O)[C@H](Cc1ccc(O)cc1)NC(=O)[C@H](CCCCN)NC(=O)[C@H](CO)NC(=O)[C@H](Cc1ccc(O)cc1)NC(=O)[C@H](CC(=O)O)NC(=O)[C@H](CO)NC(=O)[C@@H](NC(=O)[C@H](Cc1ccccc1)NC(=O)[C@@H](NC(=O)CNC(=O)[C@H](CCc1ccccc1)NC(=O)C(C)(C)NC(=O)[C@@H](N)Cc1c[nH]cn1)[C@@H](C)O)[C@@H](C)O)C(=O)N[C@@H](C)C(=O)N[C@@H](C)C(=O)N[C@@H](Cc1c[nH]cn1)C(=O)N[C@@H](CC(=O)O)C(=O)N[C@@H](Cc1ccccc1)C(=O)N[C@H](C(=O)N[C@@H](CCC(=O)O)C(=O)N[C@@H](Cc1c[nH]c2ccccc12)C(=O)N[C@@H](CC(C)C)C(=O)N[C@@H](CC(C)C)C(=O)N[C@@H](CO)C(=O)N[C@@H](C)C(N)=O)C(C)C)C(=O)O
Regarding B5, in assay [1], the “EC50 (nM) GluR, cAMP formation” value was 8.9 nM. In addition, the “EC50 (nM) GLP-1R, cAMP formation” value in assay [2] worked out at 3.5 nM.

B6: Compound 15 (peptide)
peptide: H-H[Aib]WGTFTSDYSKYLDSK([γGlu-Palmitoyl])AAHDFVEWLLSA-NH2
SMILES: CCCCCCCCCCCCCCCC(=O)N[C@@H](CCC(=O)NCCCC[C@H](NC(=O)[C@H](CO)NC(=O)[C@H](CC(=O)O)NC(=O)[C@H](CC(C)C)NC(=O)[C@H](Cc1ccc(O)cc1)NC(=O)[C@H](CCCCN)NC(=O)[C@H](CO)NC(=O)[C@H](Cc1ccc(O)cc1)NC(=O)[C@H](CC(=O)O)NC(=O)[C@H](CO)NC(=O)[C@@H](NC(=O)[C@H](Cc1ccccc1)NC(=O)[C@@H](NC(=O)CNC(=O)[C@H](Cc1c[nH]c2ccccc12)NC(=O)C(C)(C)NC(=O)[C@@H](N)Cc1c[nH]cn1)[C@@H](C)O)[C@@H](C)O)C(=O)N[C@@H](C)C(=O)N[C@@H](C)C(=O)N[C@@H](Cc1c[nH]cn1)C(=O)N[C@@H](CC(=O)O)C(=O)N[C@@H](Cc1ccccc1)C(=O)N[C@H](C(=O)N[C@@H](CCC(=O)O)C(=O)N[C@@H](Cc1c[nH]c2ccccc12)C(=O)N[C@@H](CC(C)C)C(=O)N[C@@H](CC(C)C)C(=O)N[C@@H](CO)C(=O)N[C@@H](C)C(N)=O)C(C)C)C(=O)O
Take B6: the “EC50 (nM) GluR, cAMP formation” value in assay [1] was 43 nM. Further, in assay [2], the “EC50 (nM) GLP-1R, cAMP formation” value came out at 5.8 nM.

B7: Compound 17 (peptide)
peptide: H-H[Aib]AGTFTSDYSKYLDSK([γGlu-Palmitoyl])AAHDFVEWLLSA-NH2
SMILES: CCCCCCCCCCCCCCCC(=O)N[C@@H](CCC(=O)NCCCC[C@H](NC(=O)[C@H](CO)NC(=O)[C@H](CC(=O)O)NC(=O)[C@H](CC(C)C)NC(=O)[C@H](Cc1ccc(O)cc1)NC(=O)[C@H](CCCCN)NC(=O)[C@H](CO)NC(=O)[C@H](Cc1ccc(O)cc1)NC(=O)[C@H](CC(=O)O)NC(=O)[C@H](CO)NC(=O)[C@@H](NC(=O)[C@H](Cc1ccccc1)NC(=O)[C@@H](NC(=O)CNC(=O)[C@H](C)NC(=O)C(C)(C)NC(=O)[C@@H](N)Cc1c[nH]cn1)[C@@H](C)O)[C@@H](C)O)C(=O)N[C@@H](C)C(=O)N[C@@H](C)C(=O)N[C@@H](Cc1c[nH]cn1)C(=O)N[C@@H](CC(=O)O)C(=O)N[C@@H](Cc1ccccc1)C(=O)N[C@H](C(=O)N[C@@H](CCC(=O)O)C(=O)N[C@@H](Cc1c[nH]c2ccccc12)C(=O)N[C@@H](CC(C)C)C(=O)N[C@@H](CC(C)C)C(=O)N[C@@H](CO)C(=O)N[C@@H](C)C(N)=O)C(C)C)C(=O)O
Take B7: the “EC50 (nM) GluR, cAMP formation” value in assay [1] worked out at 3.4 nM. The “EC50 (nM) GLP-1R, cAMP formation” value in assay [2] was 0.09 nM.

B8: Compound 19 (peptide)
peptide: H-H[Aib]IGTFTSDYSKYLDSK([γGlu-Palmitoyl])AAHDFVEWLLSA-NH2
SMILES: CCCCCCCCCCCCCCCC(=O)N[C@@H](CCC(=O)NCCCC[C@H](NC(=O)[C@H](CO)NC(=O)[C@H](CC(=O)O)NC(=O)[C@H](CC(C)C)NC(=O)[C@H](Cc1ccc(O)cc1)NC(=O)[C@H](CCCCN)NC(=O)[C@H](CO)NC(=O)[C@H](Cc1ccc(O)cc1)NC(=O)[C@H](CC(=O)O)NC(=O)[C@H](CO)NC(=O)[C@@H](NC(=O)[C@H](Cc1ccccc1)NC(=O)[C@@H](NC(=O)CNC(=O)[C@@H](NC(=O)C(C)(C)NC(=O)[C@@H](N)Cc1c[nH]cn1)[C@@H](C)CC)[C@@H](C)O)[C@@H](C)O)C(=O)N[C@@H](C)C(=O)N[C@@H](C)C(=O)N[C@@H](Cc1c[nH]cn1)C(=O)N[C@@H](CC(=O)O)C(=O)N[C@@H](Cc1ccccc1)C(=O)N[C@H](C(=O)N[C@@H](CCC(=O)O)C(=O)N[C@@H](Cc1c[nH]c2ccccc12)C(=O)N[C@@H](CC(C)C)C(=O)N[C@@H](CC(C)C)C(=O)N[C@@H](CO)C(=O)N[C@@H](C)C(N)=O)C(C)C)C(=O)O
Take B8: in assay [1], the “EC50 (nM) GluR, cAMP formation” value came to 0.74 nM and the “EC50 (nM) GluR, cAMP formation, earlier determination” value is 3 nM. In addition, the “EC50 (nM) GLP-1R, cAMP formation” value in assay [2] was determined as 0.16 nM.

These data come from patent US20130157929A1, “GLUCAGON ANALOGUES” (ZEALAND PHARMA A/S, published 2013).
